Here are results for 3 molecules from US20250051443A1 (NATIONAL RESEARCH COUNCIL OF CANADA, published 2025).

Assay [1] concerns the target T1, human CD3 (human, UniProt P07766 23-207; P09693 23-182; P04234 22-171). Kind of assay: cell-based or functional assay.
Assay [2] addresses T1, human CD3. The assay is described as follows: cell-based or functional assay. This is another data set of the same source.
Assay [3] concerns the target T1, human CD3. Kind of assay: flow cytometry, hybridoma supernatant on CD3+ Jurkat cells. The method in brief: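 Hybridoma supernatants stained onto CD3+ Jurkat T-cells and analysed by flow cytometry; specific binding taken as mean fluorescence intensity increase over CD3-negative J.RT3-T3.5 cells. Mouse IgG and anti-GFP supernatant served as negative controls, AF488-labelled OKT3 as positive control.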

The target of assay [4] is T1, human CD3. Kind of assay: apparent KD (KDapp), flow cytometry titration on Jurkat cells. Put shortly:
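Jurkat cells incubated 2 h on ice with 1/3 serial dilutions of purified mouse mAbs from 300 nM, then FITC anti-mouse Fc F(ab′)2 for 1 h. Binding read by flow cytometry on 2,000 viable single cells, with propidium iodide exclusion.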

Assay [5] deals with T1, human CD3. The assay is described as follows: flow competition on Jurkat, 100 nM unlabeled mAb; competitor AF488-SK7 1.5 nM. Put shortly:
(§1)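 Jurkat cells incubated with a fixed concentration of AF488-labeled anti-CD3 mAb plus 100 nM unlabeled mAb, with competition read by flow cytometry as impaired labeled-mAb binding. In-house AF488-OKT3 mIgG2b was desalted and checked for integrity by UPLC-SEC.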

In assay [6] the target is T1, human CD3. The assay is described as follows: flow competition on Jurkat, 100 nM unlabeled mAb; competitor AF488-UCHT1 5 nM. Put shortly: as §1
In assay [7] the target is T1, human CD3. The assay is described as follows: apparent KD (KDapp), flow cytometry titration on purified primary human T cells. Put shortly: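 Freshly isolated human T cells from PBMCs (negative pan-T selection), 1×10⁵ per test, stained 2 h at 4 °C with eight-point mAb dilutions from 300 or 100 nM, then APC anti-mouse IgG secondary 30 min. Background-subtracted flow MFI fitted by one-site specific binding with Hill slope for KDapp.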
A general note: In flow cytometry, cells or beads pass a laser one at a time.

For assay [8], the target named is T1, human CD3. Kind of assay: flow competition on Jurkat, 100 nM unlabeled mAb; competitor AF488-SP34.2 20 nM. Put shortly:
as §1

The target of assay [9] is T1, human CD3. Kind of assay: flow competition on Jurkat, 100 nM unlabeled mAb; competitor AF488-OKT-3 mIgG2b 1.5 nM. Put shortly:
as §1

B1: F332-5F2 (antibody, mouse IgG2b, V domains shown)
VH: QVQLQQPGAELGKPGTSVKLSCKASGYTFTSYWMHWVKQRPGQGLEWIGNINPNGGDSNYNEKFKSKATLTVDKSSSTAYMQLSTLTSEDSAVYYCTRDISGQYYFDFWGQGTSLTVFS
VL: DILMSQSPSSLAVSAGEQVTMSCKSSQSLLNSRTRKNYLAWYQQKPGQSPKLLIFWASTRKSGVPDRFTGSGSGTYFTLTISSVQAEDLAVYYCTQSYNLRTFGGGTKLEIK
notes: also called F332-5F2-2; F332-5F2 (6G8, 13A3)
As for B1, the “% max ref. OKT3 (dTomato activation)” value with human CD3 [1] turned out to be 98%. Also, the “EC50 of dTomato induction (CD69 promoter), Jurkat-CD69-dTomato cells, 24 h” value (from here on “EC50 of dTomato induction”) in the assay with human CD3 [1] turned out to be 0.19 µg/mL. Further, the “IC50, indirect ADC surrogate growth inhibition (anti-mouse-DM1) on Jurkat cells” value with human CD3 [2] worked out at 0.173 nM. Besides, in the assay with human CD3 [2], the “Span, indirect ADC surrogate growth inhibition on Jurkat cells” value amounted to 95%. The MFI in the assay with human CD3 [3] came out at 292 MFI. Also, the Kd came to 0.4 nM in the assay with human CD3 [4] and 0.37 nM with human CD3 [7]. Also, the “% residual fluorescence of labeled mAb” value was 49% with human CD3 [5], 74% with human CD3 [6], 9% with human CD3 [8] and 90% in the assay with human CD3 [9].

B2: F332-7C5 (antibody, mouse IgG2a, V domains shown)
VH: QVQLQQPGAELGKPGTSVKLSCKASGYTFTSYWMHWVKQRPGQGLEWIGNINPSSGITNYNERFKNKATLTVDKSSTTAYMQLSILTSEDSAVYYCSRDISGQYYFNFWGQGTTLTVSS
VL: DIVMSQSPSSLAVSAGEKVTMSCKSSQSLLNSRTRKNYLAWYQQKPGQSPKLLIYWASTRESGVPDRFTGTGSGTDFTLTISSVQAEDLAVYYCKQSYNLRTFGGGTKLEIK
notes: also called F332-7C5-2; F332-7C5 (5E12, 10A8)
Take B2: the “% max ref. OKT3 (dTomato activation)” value with human CD3 [1] stood at 102%. For the same molecule, the “EC50 of dTomato induction” value with human CD3 [1] is 0.23 µg/mL. For the same molecule, the “IC50, indirect ADC surrogate growth inhibition (anti-mouse-DM1) on Jurkat cells” value in the assay with human CD3 [2] turned out to be 0.062 nM. Further, in the assay with human CD3 [2], the “Span, indirect ADC surrogate growth inhibition on Jurkat cells” value is 95%. The MFI in the assay with human CD3 [3] is 334 MFI. The Kd with human CD3 [4] turned out to be 0.6 nM; with human CD3 [7], 0.41 nM. Also, the “% residual fluorescence of labeled mAb” value in the assay with human CD3 [5] is 39%; with human CD3 [6] it was 64%; with human CD3 [8] it was 7%; with human CD3 [9], 79%.

B3: F332-7C9 (antibody, mouse IgG2a, V domains shown)
VH: QVQLQQSGPELVKPGASVRISCKASGYTFTSHYLHWVKQRPGQGFEWIGWIYPGDGNTRYNEKFKDRATLTADKSSSTAYLHLSSLTSEDSAVYFCARDAGYYFDYWGQGTTLAVSS
VL: DIVMSQSPSSLAVSAGEKVTMSCKSSQSLLNSRTRKNYLAWYQQKPGQSLKVLIYWASTRESGVPDRFTGSGSGTDFTLTISSVQAEDLAVYYCKQSYSLRTFGGGTKLEIK
notes: also called F332-7C9-2; F332-7C9 (5C7, 7D10)
Take B3: the “% max ref. OKT3 (dTomato activation)” value in the assay with human CD3 [1] turned out to be 91%. Also, the “EC50 of dTomato induction” value in the assay with human CD3 [1] came to 0.24 µg/mL. Also, the “IC50, indirect ADC surrogate growth inhibition (anti-mouse-DM1) on Jurkat cells” value with human CD3 [2] came to 0.045 nM. Also, the “Span, indirect ADC surrogate growth inhibition on Jurkat cells” value with human CD3 [2] amounted to 96%. Moreover, the MFI in the assay with human CD3 [3] worked out at 285 MFI. Besides, the Kd worked out at 0.5 nM in the assay with human CD3 [4] and 0.16 nM with human CD3 [7]. Further, the “% residual fluorescence of labeled mAb” value with human CD3 [5] was 42%; with human CD3 [6], 68%; in the assay with human CD3 [8] it was 9%; in the assay with human CD3 [9], 82%.
